Tests used:
HLA-A*30:01 = assay: IEDB peptide-MHC binding, purified MHC/competitive/radioactivity; filed as Kd, often an IC50 or EC50 that approximates it; ≥ and ≤ were set here for values at or beyond the usual limits of such assays
HLA-B*08:01 [1] = assay: as above
HLA-A*26:01 = assay: as above
HLA-B*53:01 = assay: as above
HLA-A*01:01 [2] = assay: as above
HLA-A*30:02 = assay: as above
HLA-A*29:02 = assay: as above
HLA-A*03:01 [3] = assay: as above
HLA-A*11:01 = assay: as above; settings: source organism: SARS coronavirus Tor2
HLA-A*24:02 = assay: as above; settings: source organism: SARS coronavirus Tor2
HLA-A*23:01 = assay: as above; settings: source organism: SARS coronavirus Tor2
HLA-A*31:01 [4] = assay: as above
HLA-A*68:01 = assay: as above
HLA-A*33:01 = assay: as above
HLA-A*01:01 [5] = assay: IEDB peptide-MHC binding, purified MHC/direct/fluorescence; filed as Kd, often an IC50 or EC50 that approximates it; ≥ and ≤ were set here for values at or beyond the usual limits of such assays; settings: source organism: Escherichia coli O157:H7
HLA-A*03:01 [6] = assay: as above
HLA-B*44:02 = assay: as above
HLA-B*58:01 = assay: as above; settings: source organism: Escherichia coli O157:H7
HLA-B*27:05 = assay: as above; settings: source organism: Escherichia coli O157:H7
HLA-A*02:01 = assay: as above
HLA-B*40:01 = assay: as above; settings: source organism: Escherichia coli O157:H7
HLA-B*07:02 = assay: as above; settings: source organism: Escherichia coli O157:H7
HLA-B*15:01 = assay: as above
HLA-A*31:01 [7] = assay: as above
HLA-B*08:01 [8] = assay: as above
HLA-A*32:01 = assay: IEDB peptide-MHC binding, purified MHC/competitive/radioactivity; filed as Kd, often an IC50 or EC50 that approximates it; ≥ and ≤ were set here for values at or beyond the usual limits of such assays
HLA-B*18:01 = assay: IEDB peptide-MHC binding, purified MHC/direct/fluorescence; filed as Kd, often an IC50 or EC50 that approximates it; ≥ and ≤ were set here for values at or beyond the usual limits of such assays
HLA-B*44:03 = assay: IEDB peptide-MHC binding, purified MHC/competitive/radioactivity; filed as Kd, often an IC50 or EC50 that approximates it; ≥ and ≤ were set here for values at or beyond the usual limits of such assays; settings: source organism: Dengue virus 1 Brazil/97-11/1997
[9] = source organism: Dengue virus 1 Brazil/97-11/1997
[10] = source organism: Vaccinia virus WR
[11] = source organism: Dengue virus 2 Jamaica/1409/1983
[12] = source organism: Dengue virus 4 Philippines/H241/1956
[13] = source organism: Dengue virus 3 Martinique/1243/1999
[14] = source organism: SARS coronavirus Tor2
[15] = source organism: Escherichia coli O157:H7
[16] = source organism: Entamoeba histolytica HM-1:IMSS
[17] = source organism: Mammarenavirus guanaritoense
[18] = source organism: Dengue virus 1 Singapore/S275/1990
[19] = source organism: Mammarenavirus choriomeningitidis
[20] = source organism: Mammarenavirus juninense

KKMIRPQPME gave a Kd (HLA-A*30:01; [9]) of 8740 nM.
Sequence MFFIRFGKM has a Kd (HLA-B*08:01 [1]; [10]) of 31.9 nM.
Work on ATREAQKRA yielded a Kd (HLA-A*30:01; [11]) of 27.4 nM.
In the case of HLRVLFSIF, the Kd (HLA-B*08:01 [1]; [10]) is reported as 4.66 nM.
FRYVFFEII was tested, and the Kd (HLA-B*08:01 [1]; source organism: Vaccinia virus Copenhagen) was 208 nM.
Sequence TFIRSTMPLV has a Kd (HLA-A*30:01; [12]) of 257 nM.
MTTEDMLSVW showed a Kd (HLA-A*26:01; [9]) of 2090 nM and a Kd (HLA-B*53:01; [9]) of 856 nM.
For TPELEEEMF, the Kd (HLA-B*53:01; [13]) was 1970 nM.
AARDRQFEK was tested, and the Kd (HLA-A*30:01; [10]) was 104 nM.
In the case of KSAQCFKMFY, the Kd (HLA-A*01:01 [2]; [14]) is reported as ≥ 89300 nM, the Kd (HLA-A*30:02; [14]) is reported as ≥ 21200 nM and the Kd (HLA-A*29:02; [14]) is reported as 75.3 nM. For the same sequence, the Kd (HLA-A*03:01 [3]; [14]) was 5060 nM, the Kd (HLA-A*11:01) was 2250 nM and the Kd (HLA-A*24:02) was 4700 nM. The Kd (HLA-A*23:01) was 5090 nM, the Kd (HLA-A*26:01; [14]) was ≥ 86900 nM and the Kd (HLA-A*31:01 [4]; [14]) was 629 nM. The Kd (HLA-A*68:01; [14]) was 1450 nM and the Kd (HLA-A*33:01; [14]) was 753 nM.
For KPAVRFAIL, the Kd (HLA-B*08:01 [1]; [10]) was 1430 nM.
Sequence RTKIPLSKV has a Kd (HLA-A*30:01; [10]) of 4.13 nM.
With SMYQLMITI the Kd (HLA-A*01:01 [5]) was ≥ 20000 nM, the Kd (HLA-A*03:01 [6]; [15]) was ≥ 20000 nM and the Kd (HLA-B*44:02; [15]) was ≥ 20000 nM. For the same sequence, the Kd (HLA-B*58:01) was ≥ 20000 nM, the Kd (HLA-B*27:05) was ≥ 20000 nM and the Kd (HLA-A*02:01; [15]) was 827 nM. The Kd (HLA-B*40:01) was ≥ 10000 nM, the Kd (HLA-B*07:02) was ≥ 20000 nM and the Kd (HLA-B*15:01; [15]) was ≥ 20000 nM.
With AFKNKRLVF the Kd (HLA-B*08:01 [1]; [10]) was 1560 nM.
Work on KLFIRQEEV yielded a Kd (HLA-A*02:01; source organism: SARS-CoV1) of 400 nM, a Kd (HLA-A*31:01 [7]; source organism: SARS-CoV1) of 130 nM and a Kd (HLA-B*08:01 [8]; source organism: SARS-CoV1) of 2850 nM. It also gave a Kd (HLA-B*15:01; source organism: SARS-CoV1) of 14900 nM.
With RTRNALDNL the Kd (HLA-A*30:01; [13]) was 3.33 nM.
ITVSGLYPLA was tested, and the Kd (HLA-A*30:01; [12]) was 462 nM.
LLKLGFEEI was tested, and the Kd (HLA-B*08:01 [1]; [10]) was 510 nM.
For KNKIPFLLL, the Kd (HLA-A*30:01; [10]) was 92.4 nM.
With NRRRRTAGV the Kd (HLA-B*08:01 [1]; [11]) was 121 nM.
LWNFIHQQR was tested, and the Kd (HLA-A*03:01 [6]; [16]) was ≥ 20000 nM and the Kd (HLA-A*31:01 [7]; [16]) was 12.2 nM.
Work on SINVKHTSV yielded a Kd (HLA-B*08:01 [1]; [10]) of 13.3 nM.
With RARISQGAG the Kd (HLA-A*30:01; [11]) was 126 nM.
With CTLEGVWAPF the Kd (HLA-A*01:01 [2]; [17]) was 1220 nM, the Kd (HLA-A*30:02; [17]) was 937 nM and the Kd (HLA-A*29:02; [17]) was 957 nM. The Kd (HLA-A*30:01; [17]) was 6960 nM, the Kd (HLA-A*26:01; [17]) was 116 nM and the Kd (HLA-A*32:01; [17]) was 44.2 nM.
Work on RADRVIDPRR yielded a Kd (HLA-A*30:01; [9]) of 1930 nM.
For LEFFLMVLL, the Kd (HLA-B*18:01; [18]) was 189 nM, the Kd (HLA-B*44:02; [18]) was ≥ 20000 nM and the Kd (HLA-B*44:03) was 15600 nM.
In the case of YNKQSLVSL, the Kd (HLA-B*08:01 [1]; [10]) is reported as 30.1 nM.
VEAGLIDTY was tested, and the Kd (HLA-B*18:01; source organism: Vibrio vulnificus YJ016) was ≥ 20000 nM.
MMKWIISIL gave a Kd (HLA-B*08:01 [1]; [10]) of 1.28 nM.
For SNKRKVLAI, the Kd (HLA-B*08:01 [1]; [10]) was 1.85 nM.
Work on YLKAKREKL yielded a Kd (HLA-B*08:01 [8]; source organism: Coxiella burnetii Q321) of 143 nM.
Sequence LVSFLLLAGR has a Kd (HLA-A*03:01 [3]; [19]) of 803 nM, a Kd (HLA-A*30:01; [19]) of 9510 nM and a Kd (HLA-A*31:01 [4]; [19]) of 9.28 nM. For the same sequence, the Kd (HLA-A*68:01; [19]) was 36.4 nM and the Kd (HLA-A*33:01; [19]) was 151 nM.
With REDIWCGSL the Kd (HLA-B*18:01; source organism: West Nile virus) was 7080 nM.
FCSHHFHQL showed a Kd (HLA-B*08:01 [1]; [9]) of 178 nM.
Work on LYDVIPVTY yielded a Kd (HLA-A*01:01 [2]; [20]) of 145 nM, a Kd (HLA-A*30:02; [20]) of 4200 nM and a Kd (HLA-A*29:02; [20]) of 375 nM. For the same sequence, the Kd (HLA-A*30:01; [20]) was ≥ 78100 nM, the Kd (HLA-A*26:01; [20]) was ≥ 77900 nM and the Kd (HLA-A*32:01; [20]) was ≥ 77800 nM.
